Measurements: US20150376296A1 (Memorial Sloan Kettering, published 2015)

B1: 2B4 iCAR-P (PSMA-specific inhibitory chimeric antigen receptor with 2B4 intracellular domain) (receptor)
chain: EVQLQQSGPELVKPGTSVRISCKTSGYTFTEYTIHWVKQSHGKSLEWIGNINPNNGGTTYNQKFEDKATLTVDKSSSTAYMELRSLTSEDSAVYYCAAGWNFDYWGQGTTVTVSSGGGGSGGGGSGGGGSDIVMTQSHKFMSTSVGDRVSIICKASQDVGTAVDWYQQKPGQSPKLLIYWASTRHTGVPDRFTGSGSGTDFTLTITNVQSEDLADYFCQQYNSYPLTFGAGTMLDLKRAAAQDCQNAHQEFRFWPFLVIIVILSALFLGTLACFCVWRRKRKEKQSETSPKEFLTIYEDVKDLKTRRNHEQEQTFPGGGSTIYSMIQSQSSAPTSQEPAYTLYSLIQPSRKSGSRKRNHSPSFNSTIYEVIGKSQPKAQNPARLSRKELENFDVYS
B2: BTLA iCAR-P (PSMA-specific inhibitory chimeric antigen receptor with BTLA intracellular domain) (receptor)
chain: EVQLQQSGPELVKPGTSVRISCKTSGYTFTEYTIHWVKQSHGKSLEWIGNINPNNGGTTYNQKFEDKATLTVDKSSSTAYMELRSLTSEDSAVYYCAAGWNFDYWGQGTTVTVSSGGGGSGGGGSGGGGSDIVMTQSHKFMSTSVGDRVSIICKASQDVGTAVDWYQQKPGQSPKLLIYWASTRHTGVPDRFTGSGSGTDFTLTITNVQSEDLADYFCQQYNSYPLTFGAGTMLDLKRAAADVKSASERPSKDEMASRPWLLYSLLPLGGLPLLITTCFCLFCCLRRHQGKQNELSDTAGREINLVDAHLKSEQTEASTRQNSQVLLSETGIYDNDPDLCFRMQEGSEVYSNPCLEENKPGIVYASLNHSVIGPNSRLARNVKEAPTEYASICVRS
B3: LAG-3 iCAR-P (PSMA-specific inhibitory chimeric antigen receptor with LAG-3 intracellular domain) (receptor)
chain: EVQLQQSGPELVKPGTSVRISCKTSGYTFTEYTIHWVKQSHGKSLEWIGNINPNNGGTTYNQKFEDKATLTVDKSSSTAYMELRSLTSEDSAVYYCAAGWNFDYWGQGTTVTVSSGGGGSGGGGSGGGGSDIVMTQSHKFMSTSVGDRVSIICKASQDVGTAVDWYQQKPGQSPKLLIYWASTRHTGVPDRFTGSGSGTDFTLTITNVQSEDLADYFCQQYNSYPLTFGAGTMLDLKRAAALGAAVYFTELSSPGAQRSGRAPGALPAGHLLLFLILGVLSLLLLVTGAFGFHLWRRQWRPRRFSALEQGIHPPQAQSKIEELEQEPEPEPEPEPEPEPEPEPEQL

Target: human prostate-specific membrane antigen (PSMA) (human, UniProt Q04609 1-750)
Assay: cell-based or functional assay

human prostate-specific membrane antigen (PSMA), sequence (Q04609 whole entry): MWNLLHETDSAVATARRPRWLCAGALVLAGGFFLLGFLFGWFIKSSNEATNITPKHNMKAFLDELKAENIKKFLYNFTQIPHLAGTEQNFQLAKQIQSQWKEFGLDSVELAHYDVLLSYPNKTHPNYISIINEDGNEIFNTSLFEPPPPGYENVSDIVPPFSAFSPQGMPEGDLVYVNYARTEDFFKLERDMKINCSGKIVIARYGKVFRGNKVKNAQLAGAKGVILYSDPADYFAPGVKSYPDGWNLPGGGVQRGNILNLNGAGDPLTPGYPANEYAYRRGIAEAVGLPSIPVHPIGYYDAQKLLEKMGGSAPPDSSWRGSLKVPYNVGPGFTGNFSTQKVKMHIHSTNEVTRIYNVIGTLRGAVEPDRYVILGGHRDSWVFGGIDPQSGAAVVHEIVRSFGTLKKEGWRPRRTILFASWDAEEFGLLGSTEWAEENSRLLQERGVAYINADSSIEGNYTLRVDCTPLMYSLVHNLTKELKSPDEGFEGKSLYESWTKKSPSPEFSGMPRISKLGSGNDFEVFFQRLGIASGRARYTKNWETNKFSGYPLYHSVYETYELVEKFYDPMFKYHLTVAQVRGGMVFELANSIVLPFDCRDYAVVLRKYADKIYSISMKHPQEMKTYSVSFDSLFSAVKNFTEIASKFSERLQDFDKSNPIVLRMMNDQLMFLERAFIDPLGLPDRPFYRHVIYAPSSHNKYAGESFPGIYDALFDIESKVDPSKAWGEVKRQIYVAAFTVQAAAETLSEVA

Cytokine levels of 19-28z/iCAR T cells on CD19+PSMA+ off-target versus CD19+ target AAPCs, inhibition, 30%:
B1, B2, B3
